This is an account of results in PMC12747129 (Science (New York, N.Y.), 2023).

This data set concerns the molecule itself. Put plainly: cryo-EM structure.

B1: E. coli MraY (EcMraY), wild type (enzyme)
chain: MLVWLAEHLVKYYSGFNVFSYLTFRAIVSLLTALFISLWMGPRMIAHLQKLSFGQVVRNDGPESHFSKRGTPTMGGIMILTAIVISVLLWAYPSNPYVWCVLVVLVGYGVIGFVDDYRKVVRKDTKGLIARWKYFWMSVIALGVAFALYLAGKDTPATQLVVPFFKDVMPQLGLFYILLAYFVIVGTGNAVNLTDGLDGLAIMPTVFVAGGFALVAWATGNMNFASYLHIPYLRHAGELVIVCTAIVGAGLGFLWFNTYPAQVFMGDVGSLALGGALGIIAVLLRQEFLLVIMGGVFVVETLSVILQVGSFKLRGQRIFRMAPIHHHYELKGWPEPRVIVRFWIISLMLVLIGLATLKVR
For B1, the “stoichiometry N” value came out at 2.

The stoichiometry N is a count of units in the complex or per binding partner.
